Here are results for 14 molecules from patent US20250257142A1 (INVETX, published 2025).

The labels stand for the following.
T1: extracellular domain of canine IL-31RA fused to murine IgG2A Fc (canine)
T1 construct: also called Canine IL-31RA-murine IgG2A Fc; Canine IL-31RA-mFc
T1 chain: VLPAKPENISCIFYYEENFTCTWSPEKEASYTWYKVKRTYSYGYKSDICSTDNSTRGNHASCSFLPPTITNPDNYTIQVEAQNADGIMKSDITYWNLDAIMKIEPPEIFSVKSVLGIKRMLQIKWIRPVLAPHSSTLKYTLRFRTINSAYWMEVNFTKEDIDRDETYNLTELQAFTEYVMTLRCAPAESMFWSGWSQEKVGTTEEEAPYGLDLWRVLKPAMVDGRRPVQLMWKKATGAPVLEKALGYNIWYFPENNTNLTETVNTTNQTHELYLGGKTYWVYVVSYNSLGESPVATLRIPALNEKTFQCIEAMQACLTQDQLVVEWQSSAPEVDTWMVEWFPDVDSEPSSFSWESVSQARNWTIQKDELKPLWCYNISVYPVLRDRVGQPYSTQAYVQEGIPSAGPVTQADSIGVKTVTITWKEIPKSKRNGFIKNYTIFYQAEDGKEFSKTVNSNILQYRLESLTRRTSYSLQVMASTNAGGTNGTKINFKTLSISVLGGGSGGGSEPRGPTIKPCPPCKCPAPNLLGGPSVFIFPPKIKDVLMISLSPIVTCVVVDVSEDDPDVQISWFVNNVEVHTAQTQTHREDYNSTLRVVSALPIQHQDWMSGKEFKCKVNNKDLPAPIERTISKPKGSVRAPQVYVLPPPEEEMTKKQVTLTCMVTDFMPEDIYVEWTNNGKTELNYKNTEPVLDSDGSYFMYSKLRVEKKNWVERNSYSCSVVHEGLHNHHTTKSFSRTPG

B1: 109-49 heavy chain M118I variant with wild-type light chain (antibody, V domains shown)
VH: EVQLVESGGDLVKPGGSLRLSCVASGFTFDDYGMSWVRQAPGKGLQWVSGINWAGGTIGYADAVKGRFTISRDNARNTVYLQMNSLRAEDTAVYYCARESPLRLGDLGGDYFYYYYYIDVWGQGTLVTVSS
VL: EVVMIQTPLSLSVSPGEPASISCRASQSVSSRYLVWYLQKPGQSPQLLIYGTSSRATGVSDRFSGSGSGTDFTLRISRVEAEDVGVYYCQQYDNSPRTFGQGTKVEIKR
notes: Canine IgGB/kappa; signal peptides left out; also called M118I / Wild-type
B2: 109-49 heavy chain W53F variant with wild-type light chain (antibody, V domains shown)
VH: EVQLVESGGDLVKPGGSLRLSCVASGFTFDDYGMSWVRQAPGKGLQWVSGINFAGGTIGYADAVKGRFTISRDNARNTVYLQMNSLRAEDTAVYYCARESPLRLGDLGGDYFYYYYYMDVWGQGTLVTVSS
VL: EVVMIQTPLSLSVSPGEPASISCRASQSVSSRYLVWYLQKPGQSPQLLIYGTSSRATGVSDRFSGSGSGTDFTLRISRVEAEDVGVYYCQQYDNSPRTFGQGTKVEIKR
notes: Canine IgGB/kappa; signal peptides left out; also called W53F / Wild-type
B3: 109-49 heavy chain W53Y variant with wild-type light chain (antibody, V domains shown)
VH: EVQLVESGGDLVKPGGSLRLSCVASGFTFDDYGMSWVRQAPGKGLQWVSGINYAGGTIGYADAVKGRFTISRDNARNTVYLQMNSLRAEDTAVYYCARESPLRLGDLGGDYFYYYYYMDVWGQGTLVTVSS
VL: EVVMIQTPLSLSVSPGEPASISCRASQSVSSRYLVWYLQKPGQSPQLLIYGTSSRATGVSDRFSGSGSGTDFTLRISRVEAEDVGVYYCQQYDNSPRTFGQGTKVEIKR
notes: Canine IgGB/kappa; signal peptides left out; also called W53Y / Wild-type
B4: caninized antibody clone 109-49 (antibody, V domains shown)
VH: EVQLVESGGDLVKPGGSLRLSCVASGFTFDDYGMSWVRQAPGKGLQWVSGINWAGGTIGYADAVKGRFTISRDNARNTVYLQMNSLRAEDTAVYYCARESPLRLGDLGGDYFYYYYYMDVWGQGTLVTVSS
VL: EVVMIQTPLSLSVSPGEPASISCRASQSVSSRYLVWYLQKPGQSPQLLIYGTSSRATGVSDRFSGSGSGTDFTLRISRVEAEDVGVYYCQQYDNSPRTFGQGTKVEIKR
notes: Canine IgGB and canine kappa constant domains
B5: 109-49 wild-type heavy chain with light chain S95A variant (antibody, V domains shown)
VH: EVQLVESGGDLVKPGGSLRLSCVASGFTFDDYGMSWVRQAPGKGLQWVSGINWAGGTIGYADAVKGRFTISRDNARNTVYLQMNSLRAEDTAVYYCARESPLRLGDLGGDYFYYYYYMDVWGQGTLVTVSS
VL: EVVMIQTPLSLSVSPGEPASISCRASQSVSSRYLVWYLQKPGQSPQLLIYGTSSRATGVSDRFSGSGSGTDFTLRISRVEAEDVGVYYCQQYDNAPRTFGQGTKVEIKR
notes: Canine IgGB/kappa; signal peptides left out; also called Wild-type / S95A
B6: 109-49 heavy chain W53F + M118I variant with light chain S95A variant (antibody, V domains shown)
VH: EVQLVESGGDLVKPGGSLRLSCVASGFTFDDYGMSWVRQAPGKGLQWVSGINFAGGTIGYADAVKGRFTISRDNARNTVYLQMNSLRAEDTAVYYCARESPLRLGDLGGDYFYYYYYIDVWGQGTLVTVSS
VL: EVVMIQTPLSLSVSPGEPASISCRASQSVSSRYLVWYLQKPGQSPQLLIYGTSSRATGVSDRFSGSGSGTDFTLRISRVEAEDVGVYYCQQYDNAPRTFGQGTKVEIKR
notes: Canine IgGB/kappa; signal peptides left out; also called W53F-M118I / S95A
B7: 109-49 wild-type heavy chain with light chain N94Q variant (antibody, V domains shown)
VH: EVQLVESGGDLVKPGGSLRLSCVASGFTFDDYGMSWVRQAPGKGLQWVSGINWAGGTIGYADAVKGRFTISRDNARNTVYLQMNSLRAEDTAVYYCARESPLRLGDLGGDYFYYYYYMDVWGQGTLVTVSS
VL: EVVMIQTPLSLSVSPGEPASISCRASQSVSSRYLVWYLQKPGQSPQLLIYGTSSRATGVSDRFSGSGSGTDFTLRISRVEAEDVGVYYCQQYDQSPRTFGQGTKVEIKR
notes: Canine IgGB/kappa; signal peptides left out; also called Wild-type / N94Q
B8: 109-49 heavy chain M118I variant with light chain N94Q variant (antibody, V domains shown)
VH: EVQLVESGGDLVKPGGSLRLSCVASGFTFDDYGMSWVRQAPGKGLQWVSGINWAGGTIGYADAVKGRFTISRDNARNTVYLQMNSLRAEDTAVYYCARESPLRLGDLGGDYFYYYYYIDVWGQGTLVTVSS
VL: EVVMIQTPLSLSVSPGEPASISCRASQSVSSRYLVWYLQKPGQSPQLLIYGTSSRATGVSDRFSGSGSGTDFTLRISRVEAEDVGVYYCQQYDQSPRTFGQGTKVEIKR
notes: Canine IgGB/kappa; signal peptides left out; also called M118I / N94Q
B9: 109-49 heavy chain M118L variant with wild-type light chain (antibody, V domains shown)
VH: EVQLVESGGDLVKPGGSLRLSCVASGFTFDDYGMSWVRQAPGKGLQWVSGINWAGGTIGYADAVKGRFTISRDNARNTVYLQMNSLRAEDTAVYYCARESPLRLGDLGGDYFYYYYYLDVWGQGTLVTVSS
VL: EVVMIQTPLSLSVSPGEPASISCRASQSVSSRYLVWYLQKPGQSPQLLIYGTSSRATGVSDRFSGSGSGTDFTLRISRVEAEDVGVYYCQQYDNSPRTFGQGTKVEIKR
notes: Canine IgGB/kappa; signal peptides left out; also called M118L / Wild-type
B10: 109-49 heavy chain W53F + M118I variant with light chain N94Q variant (antibody, V domains shown)
VH: EVQLVESGGDLVKPGGSLRLSCVASGFTFDDYGMSWVRQAPGKGLQWVSGINFAGGTIGYADAVKGRFTISRDNARNTVYLQMNSLRAEDTAVYYCARESPLRLGDLGGDYFYYYYYIDVWGQGTLVTVSS
VL: EVVMIQTPLSLSVSPGEPASISCRASQSVSSRYLVWYLQKPGQSPQLLIYGTSSRATGVSDRFSGSGSGTDFTLRISRVEAEDVGVYYCQQYDQSPRTFGQGTKVEIKR
notes: Canine IgGB/kappa; signal peptides left out; also called W53F-M118I / N94Q
B11: 186-95 heavy chain M106L variant with wild-type light chain (antibody, V domains shown)
VH: EVQLVESGGDLVKPGGSLRLSCVASGFTFSSYAMSWVRQAPGKGLQWVSAISGSGNSTYYADAVKGRFTISRDNAKNTLYLQMNSLRAEDTAVYYCATQVVYYFKLDVWGQGTLVTVSS
VL: EIVMTQSPGSLAGSAGESVSINCKSSQSVSSNLAWYQQKPGERPKLLIYGASTRASGVPARFSSSGSGTDFTLTINNLQAEDVGDYYCQQYYNWPPFTFGQGTKLEIKR
notes: Canine IgGB/kappa; signal peptides left out; also called M106L / Wild-type
B12: 186-95 heavy chain M106I variant with wild-type light chain (antibody, V domains shown)
VH: EVQLVESGGDLVKPGGSLRLSCVASGFTFSSYAMSWVRQAPGKGLQWVSAISGSGNSTYYADAVKGRFTISRDNAKNTLYLQMNSLRAEDTAVYYCATQVVYYFKIDVWGQGTLVTVSS
VL: EIVMTQSPGSLAGSAGESVSINCKSSQSVSSNLAWYQQKPGERPKLLIYGASTRASGVPARFSSSGSGTDFTLTINNLQAEDVGDYYCQQYYNWPPFTFGQGTKLEIKR
notes: Canine IgGB/kappa; signal peptides left out; also called M106I / Wild-type
B13: 186-95 heavy chain N56Q variant with wild-type light chain (antibody, V domains shown)
VH: EVQLVESGGDLVKPGGSLRLSCVASGFTFSSYAMSWVRQAPGKGLQWVSAISGSGQSTYYADAVKGRFTISRDNAKNTLYLQMNSLRAEDTAVYYCATQVVYYFKMDVWGQGTLVTVSS
VL: EIVMTQSPGSLAGSAGESVSINCKSSQSVSSNLAWYQQKPGERPKLLIYGASTRASGVPARFSSSGSGTDFTLTINNLQAEDVGDYYCQQYYNWPPFTFGQGTKLEIKR
notes: Canine IgGB/kappa; signal peptides left out; also called N56Q / Wild-type
B14: 186-95 heavy chain N56Q + M106L variant with light chain W94Y variant (antibody, V domains shown)
VH: EVQLVESGGDLVKPGGSLRLSCVASGFTFSSYAMSWVRQAPGKGLQWVSAISGSGQSTYYADAVKGRFTISRDNAKNTLYLQMNSLRAEDTAVYYCATQVVYYFKLDVWGQGTLVTVSS
VL: EIVMTQSPGSLAGSAGESVSINCKSSQSVSSNLAWYQQKPGERPKLLIYGASTRASGVPARFSSSGSGTDFTLTINNLQAEDVGDYYCQQYYNYPPFTFGQGTKLEIKR
notes: Canine IgGB/kappa; signal peptides left out; also called N56Q-M106L / W94Y

In one assay the target is T1, extracellular domain of canine IL-31RA …. The experiment in a line: SPR Biacore T200, antibody captured on anti-dog H+L chip, canine IL-31RA-mFc as analyte; relative affinity scale: *** 3 pM-100 pM, ** 101 pM-1 nM, * 1.1 nM-20 nM (avidity). The protocol:
(§1) The different heavy and light chain combinations were co-transfected into ExpiCHO cells using the ExpiCHO transfection kit (ThermoFisher; Cat. #A29133). Seven days following the transient transfection, the IgG in the conditioned medium was purified using MabSelect SuRe chromatography. The antibodies were buffer-exchanged into PBS, pH 7.4. The relative affinity of the variants was determined by SPR on a Biacore T200. The antibody was captured using a CM5 Series S chip amine coupled with an anti-dog H+L antibody (Jackson Immunoresearch). Canine IL-31RA-mFc (100 nM, 50 nM, 25 nM, 12.5 nM, 6.25 nM, 3.625 nM) solutions in 1×HBS-EP+ was flown over the sensor chip for a contact time of 120 s and a dissociation time of 600 s at a flow rate of […]. Double reference-subtracted sensorgrams were fitted to a 1:1 binding model using Biacore T200 Evaluation software. The canine IL-31RA antigen was both a dimer and aggregated so there were avidity effects with the measured affinities. […] Following the initial results with the single variants, a heavy chain containing the W53F variant and the M118I variant was synthesized and subcloned into pcDNA 3.4 (SEQ ID NO:18). The same methods as described above for expression and purification of the variant along with measuring the relative affinity were used to determine the relative affinity of the W53F/M118I heavy chain variant combined with the S95A light chain and the N94Q light chain variants.
For orientation: In SPR one partner is held on a chip, and binding of the other changes the refractive index at the surface.
As for B1, the “relative affinity (apparent KD by SPR)” value was 0.003 to 0.1 nM.

For the molecule B2, the “relative affinity (apparent KD by SPR)” value fell in the range of 1.1 to 20 nM.

Regarding B3, the “relative affinity (apparent KD by SPR)” value was in the range of 1.1 to 20 nM.

In the case of B4, the “relative affinity (apparent KD by SPR)” value fell in the range of 0.003 to 0.1 nM.

For the molecule B5, the “relative affinity (apparent KD by SPR)” value lay within 0.003 to 0.1 nM.

In the case of B6, the “relative affinity (apparent KD by SPR)” value lay within 1.1 to 20 nM.

In the case of B7, the “relative affinity (apparent KD by SPR)” value was 0.101 to 1 nM.

As for B8, the “relative affinity (apparent KD by SPR)” value fell in the range of 0.003 to 0.1 nM.

For the molecule B9, the “relative affinity (apparent KD by SPR)” value was in the range of 1.1 to 20 nM.

For the molecule B10, the “relative affinity (apparent KD by SPR)” value fell in the range of 1.1 to 20 nM.

For the next assay the target is unchanged. The assay is described as above. This is another data set of the same source. The protocol: as §1, with “Seven” for “The different heavy and light chain combinations were co-transfected into ExpiCHO cells using the ExpiCHO transfection kit (ThermoFisher; Cat. #A29133). Seven”
As for B11, the binding result was “binds”.

Take B12: the binding result was “binds”.

In the case of B13, the binding result is reported as “binds”.

For B14, the binding result is “binds”.
